Values of other authors as cited in PMC10544997.
pKd: −log10 of the molar value.

Biological target: FcγRIIa (Homo sapiens) (UniProt P12318)
Sequence (P12318 34-317): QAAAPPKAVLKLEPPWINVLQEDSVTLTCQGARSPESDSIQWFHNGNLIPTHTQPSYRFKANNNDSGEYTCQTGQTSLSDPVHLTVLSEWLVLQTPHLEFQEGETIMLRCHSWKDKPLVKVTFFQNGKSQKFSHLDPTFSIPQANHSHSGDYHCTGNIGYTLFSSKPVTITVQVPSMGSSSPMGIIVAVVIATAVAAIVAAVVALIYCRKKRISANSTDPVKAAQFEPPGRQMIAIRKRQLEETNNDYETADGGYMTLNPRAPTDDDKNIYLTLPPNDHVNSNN

## IgG1 Fc (from UniProt P01857)
  pKd: 6.00
